Experimental findings from article PMC8769549 are described below.

Experiment [1] addresses SARS-CoV-2 nsp3 ubiquitin-like domain Ubl1 (1 to 111) (SARS-CoV-2). Nature of the experiment: ITC.
Experiment [2] deals with SARS-CoV-2 nsp3a (1 to 206) (SARS-CoV-2). Nature of the experiment: ITC.

pKd: −log10 of the molar value.

In experiment [1], “SARS-CoV-2 nucleoprotein N123 (domains N1, N2 and N3) (domain or fragment)” gave a pKd of 7.14 and a stoichiometry N of 0.903. In experiment [2], this substance showed a pKd of 6.88 and a stoichiometry N of 0.665.
